How the values were obtained:
[1] = test system: IEC18 cells; assay: Test 2: effect of simultaneous use of Lf or Lf-Hy and EGF on DNA synthesis (3H-thymidine incorporation); assay type: cell-based, rat; conditions: single use of bLf, various concentrations
[2] = test system: IEC18 cells; assay: Test 3: proliferation of small intestine epithelial cells (cell count by hemocytometer); assay type: cell-based, rat; conditions: single addition of 50 μg/ml; sixth and tenth days of culture; compared with control group and EGF single group
Procedure: ICE18 cells (the same ones as in the Test 1) were inoculated onto a 24-well culture plate by 5,000 cells per well, and were cultured for ten days with 1% FBS DMEM (0.5 ml) containing the following test subjects. During this test period, the medium was replaced on the third and the sixth days, and the number of cells was measured on the third, the sixth and the tenth days. The number of cells was counted by a hemocytometer after treating the cells with 0.25% trypsin solution and suspending them in the solution.
The test subjects included a sample added with nothing, a sample added with 10 ng/ml EGF, a sample added with 50 μg/ml bLf or bLf-Hy, and a sample added with 10 ng/ml EGF and 50 μg/ml bLf or bLf-Hy.

B1: bLf: bovine lactoferrin (manufactured by Yukijirushi Nyugyo Company) (protein, UniProt P24627 20-708, looked up)
Lactotransferrin: APRKNVRWCTISQPEWFKCRRWQWRMKKLGAPSITCVRRAFALECIRAIAEKKADAVTLDGGMVFEAGRDPYKLRPVAAEIYGTKESPQTHYYAVAVVKKGSNFQLDQLQGRKSCHTGLGRSAGWIIPMGILRPYLSWTESLEPLQGAVAKFFSASCVPCIDRQAYPNLCQLCKGEGENQCACSSREPYFGYSGAFKCLQDGAGDVAFVKETTVFENLPEKADRDQYELLCLNNSRAPVDAFKECHLAQVPSHAVVARSVDGKEDLIWKLLSKAQEKFGKNKSRSFQLFGSPPGQRDLLFKDSALGFLRIPSKVDSALYLGSRYLTTLKNLRETAEEVKARYTRVVWCAVGPEEQKKCQQWSQQSGQNVTCATASTTDDCIVLVLKGEADALNLDGGYIYTAGKCGLVPVLAENRKSSKHSSLDCVLRPTEGYLAVAVVKKANEGLTWNSLKDKKSCHTAVDRTAGWNIPMGLIVNQTGSCAFDEFFSQSCAPGADPKSRLCALCAGDDQGLDKCVPNSKEKYYGYTGAFRCLAEDVGDVAFVKNDTVWENTNGESTADWAKNLNREDFRLLCLDGTRKPVTEAQSCHLAVAPNHAVVSRSDRAAHVKQVLLHQQALFGKNGKNCPDKFCLFKSETKNLLFNDNTECLAKLGGRPTYEEYLGTEYVTAIANLKKCSTSPLLEACAFLTR
- quantity of incorporated 3H-thymidine into DNA (FIG. 1) [1]: no effect
- number of cells (FIGS. 3 and 4) [2]: significantly increased
